Assay [1] concerns the target full-length monkey CD137 on the cell surface (cynomolgus monkey). The assay can be described thus: flow cytometry, PMA/ionomycin-activated monkey T cells, antibody 100 nM. (A flow cytometer gives signals particle by particle.)
Assay [2] has as its target Hu_CRD1-CRD2-CRD3 (human) (UniProt Q07011). Briefly: flow cytometry, yeast display [Cont.].
For a further assay, the target named is Hu_CRD2 (human) (UniProt Q07011). The assay can be described thus: flow cytometry, yeast display [Cont.].
The target of the next assay is Hu_CRD1-CRD2 (human) (UniProt Q07011). Briefly: flow cytometry, yeast display [Cont.].
The next assay addresses Hu_CRD3-CRD4 (human) (UniProt Q07011). Briefly: flow cytometry, yeast display [Cont.].
The next assay has as its target Hu_CRD2-CRD3 (human) (UniProt Q07011). Briefly: flow cytometry, yeast display [Cont.].
The next assay addresses Hu_CRD4 (human) (UniProt Q07011). Briefly: flow cytometry, yeast display [Cont.].
The target of assay [3] is Hu_CRD2-CRD3-CRD4 (human) (UniProt Q07011). Briefly: flow cytometry, yeast display [Cont.].
For assay [4], the target named is full-length mouse CD137 on the cell surface (mouse) (UniProt P20334). The assay can be described thus: flow cytometry, yeast display [Cont.].
Assay [5] has as its target full-length human CD137 on the cell surface (human) (UniProt Q07011). The assay can be described thus: flow cytometry, yeast display [Cont.].
The target of assay [6] is GITR overexpressed on HEK293F cells (UniProt Q9Y5U5). Briefly: flow cytometry, HEK293F cells expressing the receptor, antibody 100 nM [Cont.].
A further assay deals with CD95. Described as above.
Assay [7] has as its target CD40 overexpressed on HEK293F cells (UniProt P25942). The description is as above.
Assay [8] addresses OX40 overexpressed on HEK293F cells (UniProt P43489). The assay is described as above.
In assay [9] the target is CD27 overexpressed on HEK293F cells (UniProt P26842). The description is as above.
In assay [10] the target is full-length human CD137 on the cell surface (human) (UniProt Q07011). The description is as above.
Assay [11] addresses purified C1q component of the human complement (human) (UniProt P02745). Briefly: ELISA, direct binding of antibody to purified human complement C1q, A450. (ELISA stands for enzyme-linked immunosorbent assay.)

Consider three substances from US20190055314A1.

What is called EC50 (read off the curve) is the midpoint of the concentration-response curve.

Hu_CRD2 (human), sequence (Q07011 46-86 limits assumed): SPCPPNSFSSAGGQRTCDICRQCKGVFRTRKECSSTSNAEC
full-length human CD137 on the cell surface (human), sequence (Q07011 18-255): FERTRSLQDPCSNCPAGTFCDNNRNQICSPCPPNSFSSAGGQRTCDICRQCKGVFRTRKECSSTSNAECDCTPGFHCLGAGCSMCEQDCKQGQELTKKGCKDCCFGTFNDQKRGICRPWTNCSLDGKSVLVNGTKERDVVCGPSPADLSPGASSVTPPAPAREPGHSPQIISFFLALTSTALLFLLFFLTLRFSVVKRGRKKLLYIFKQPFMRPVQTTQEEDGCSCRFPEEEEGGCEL
Hu_CRD2-CRD3-CRD4 (human), sequence (Q07011 46-159 limits assumed): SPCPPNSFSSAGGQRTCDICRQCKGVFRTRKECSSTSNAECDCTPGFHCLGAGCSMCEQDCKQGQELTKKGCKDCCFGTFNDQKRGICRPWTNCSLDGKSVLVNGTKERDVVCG
Hu_CRD2-CRD3 (human), sequence (Q07011 46-118 limits assumed): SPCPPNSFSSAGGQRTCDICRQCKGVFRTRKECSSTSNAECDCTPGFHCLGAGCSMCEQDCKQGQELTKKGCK
Hu_CRD4 (human), sequence (Q07011 119-159 limits assumed): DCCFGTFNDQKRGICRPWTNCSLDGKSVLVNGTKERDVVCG
Hu_CRD1-CRD2 (human), sequence (Q07011 24-86 limits assumed): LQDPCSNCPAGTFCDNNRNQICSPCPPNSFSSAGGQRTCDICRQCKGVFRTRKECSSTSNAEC
Hu_CRD1-CRD2-CRD3 (human), sequence (Q07011 24-118 limits assumed): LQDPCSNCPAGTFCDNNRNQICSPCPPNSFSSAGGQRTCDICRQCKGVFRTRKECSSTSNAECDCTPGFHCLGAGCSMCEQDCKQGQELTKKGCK
full-length mouse CD137 on the cell surface (mouse), sequence (P20334 24-178 limits assumed): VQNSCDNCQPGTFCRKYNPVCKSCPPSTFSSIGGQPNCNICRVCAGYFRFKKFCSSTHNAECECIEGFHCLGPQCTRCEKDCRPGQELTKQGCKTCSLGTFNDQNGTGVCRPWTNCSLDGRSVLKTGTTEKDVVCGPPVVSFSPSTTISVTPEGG
Hu_CRD3-CRD4 (human), sequence (Q07011 87-159 limits assumed): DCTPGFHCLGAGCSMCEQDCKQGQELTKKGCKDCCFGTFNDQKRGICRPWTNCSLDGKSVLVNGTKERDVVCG
CD27 overexpressed on HEK293F cells, sequence (P26842 20-260 limits assumed): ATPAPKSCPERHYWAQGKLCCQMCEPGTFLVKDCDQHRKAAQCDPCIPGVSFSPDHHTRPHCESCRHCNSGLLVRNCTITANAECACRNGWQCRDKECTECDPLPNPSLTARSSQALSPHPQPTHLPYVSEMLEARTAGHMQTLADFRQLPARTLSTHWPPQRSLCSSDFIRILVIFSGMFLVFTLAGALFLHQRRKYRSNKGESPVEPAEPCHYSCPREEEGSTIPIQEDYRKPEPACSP
CD40 overexpressed on HEK293F cells, sequence (P25942 21-277 limits assumed): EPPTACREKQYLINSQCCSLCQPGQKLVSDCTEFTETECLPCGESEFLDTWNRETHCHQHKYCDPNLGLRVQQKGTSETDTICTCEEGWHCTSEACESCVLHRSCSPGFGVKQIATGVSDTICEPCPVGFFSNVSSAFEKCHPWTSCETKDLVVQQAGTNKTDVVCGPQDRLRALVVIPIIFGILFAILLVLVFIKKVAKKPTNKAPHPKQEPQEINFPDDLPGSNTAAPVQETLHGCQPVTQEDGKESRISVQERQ
CD95, sequence (chain, as listed by the source limits assumed): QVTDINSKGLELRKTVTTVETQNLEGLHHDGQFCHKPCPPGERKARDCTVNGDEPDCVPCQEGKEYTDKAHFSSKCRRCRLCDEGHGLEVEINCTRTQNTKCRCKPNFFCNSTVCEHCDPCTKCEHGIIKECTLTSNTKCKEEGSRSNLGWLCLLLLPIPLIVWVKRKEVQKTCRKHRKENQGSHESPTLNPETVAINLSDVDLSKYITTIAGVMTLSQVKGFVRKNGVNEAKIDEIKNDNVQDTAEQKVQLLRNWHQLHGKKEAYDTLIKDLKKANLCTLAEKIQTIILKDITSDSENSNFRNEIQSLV
GITR overexpressed on HEK293F cells, sequence (Q9Y5U5 26-241 limits assumed): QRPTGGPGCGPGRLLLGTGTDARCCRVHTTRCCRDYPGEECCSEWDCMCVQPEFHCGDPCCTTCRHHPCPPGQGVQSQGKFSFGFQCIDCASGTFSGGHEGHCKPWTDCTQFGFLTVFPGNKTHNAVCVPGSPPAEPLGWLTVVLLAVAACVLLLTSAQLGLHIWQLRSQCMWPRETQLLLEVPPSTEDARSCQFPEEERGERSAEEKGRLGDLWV
full-length monkey CD137 on the cell surface (cynomolgus monkey), sequence (Q07011 other isoform, or with tags, fused parts or gaps): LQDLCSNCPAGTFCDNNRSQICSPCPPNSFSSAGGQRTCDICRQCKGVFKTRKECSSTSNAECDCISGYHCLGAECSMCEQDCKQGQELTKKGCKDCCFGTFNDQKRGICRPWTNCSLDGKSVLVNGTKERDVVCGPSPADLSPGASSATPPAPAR
OX40 overexpressed on HEK293F cells, sequence (P43489 29-277 limits assumed): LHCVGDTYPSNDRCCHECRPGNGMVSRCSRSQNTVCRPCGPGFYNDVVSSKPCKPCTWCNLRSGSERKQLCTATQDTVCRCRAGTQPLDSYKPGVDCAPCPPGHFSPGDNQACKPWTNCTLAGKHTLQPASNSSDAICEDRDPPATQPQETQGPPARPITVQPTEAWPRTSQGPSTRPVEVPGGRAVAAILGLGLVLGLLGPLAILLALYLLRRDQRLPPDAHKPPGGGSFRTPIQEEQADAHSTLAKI
purified C1q component of the human complement (human), sequence (P02745 23-245, chain 1 of 3): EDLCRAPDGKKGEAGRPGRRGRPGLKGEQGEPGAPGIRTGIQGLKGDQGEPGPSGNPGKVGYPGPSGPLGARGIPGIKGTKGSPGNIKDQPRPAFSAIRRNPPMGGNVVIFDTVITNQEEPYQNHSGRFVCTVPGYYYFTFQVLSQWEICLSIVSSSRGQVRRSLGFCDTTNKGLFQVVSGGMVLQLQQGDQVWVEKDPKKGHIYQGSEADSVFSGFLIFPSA
purified C1q component of the human complement (human), sequence (P02746 28-253, chain 2 of 3, further chain): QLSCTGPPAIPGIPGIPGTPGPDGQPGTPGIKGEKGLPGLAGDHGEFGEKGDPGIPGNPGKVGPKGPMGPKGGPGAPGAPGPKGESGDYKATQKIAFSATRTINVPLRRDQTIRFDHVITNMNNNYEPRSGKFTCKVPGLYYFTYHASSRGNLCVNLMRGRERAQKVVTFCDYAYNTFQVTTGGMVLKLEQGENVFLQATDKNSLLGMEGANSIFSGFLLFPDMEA
purified C1q component of the human complement (human), sequence (P02747 29-245, chain 3 of 3, further chain): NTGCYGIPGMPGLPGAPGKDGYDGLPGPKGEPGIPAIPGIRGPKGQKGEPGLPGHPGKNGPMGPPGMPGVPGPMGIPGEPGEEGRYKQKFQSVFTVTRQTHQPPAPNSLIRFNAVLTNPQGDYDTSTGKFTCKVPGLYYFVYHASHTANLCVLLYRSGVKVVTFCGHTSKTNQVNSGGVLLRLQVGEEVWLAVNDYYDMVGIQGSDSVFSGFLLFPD

Regarding Isotype (antibody), the % of cells positive for antibody binding in assay [1] was determined as 1.5%. Further, the % in upper right quadrant in [2] is 0.1%; with Hu_CRD2 (human) it was 0.18%; with Hu_CRD1-CRD2 (human), 0.15%; with Hu_CRD3-CRD4 (human), 0.17%; with Hu_CRD2-CRD3 (human), 0.14%; in the assay with Hu_CRD4 (human), 0.23%. The values for the % in upper right quadrant in [3], in assay [4] and in [5] were 0.2%, 0.18% and 0.14%, respectively. Moreover, the Mean turned out to be 3680 in [2]; 4650 with Hu_CRD2 (human); 5560 with Hu_CRD1-CRD2 (human); 6860 with Hu_CRD3-CRD4 (human); 6280 with Hu_CRD2-CRD3 (human); 11000 with Hu_CRD4 (human). Moreover, the Mean in assay [3] came to 15000; in assay [4] it was 14800; in [5], 9600; in assay [6], 8970; with CD95 it was 5140; in assay [8], 5300. For the same substance, the Mean in assay [9] turned out to be 48100; in [10], 7360. The substance also registered a Median in assay [7] of 5730.
Consider human IgG1 isotype control antibody, for which, in [11], the EC50 (read off the curve) is 2 nM.
With “mouse CD137L (from UniProt P41274 104-309) (ligand)”, in the assay with Hu_CRD2 (human), the % in upper right quadrant was 0.16% and the Mean is 14600.
